Experimental data from FireProtDB.

B1: Subtilisin BPN', P00782 (parent)
chain: MRGKKVWISLLFALALIFTMAFGSTSSAQAAGKSNGEKKYIVGFKQTMSTMSAAKKKDVISEKGGKVQKQFKYVDAASATLNEKAVKELKKDPSVAYVEEDHVAHAYAQSVPYGVSQIKAPALHSQGYTGSNVKVAVIDSGIDSSHPDLKVAGGASMVPSETNPFQDNNSHGTHVAGTVAALNNSIGVLGVAPSASLYAVKVLGADGSGQYSWIINGIEWAIANNMDVINMSLGGPSGSAALKAAVDKAVASGVVVVAAAGNEGTSGSSSTVGYPGKYPSVIAVGAVDSSNQRASFSSVGPELDVMAPGVSIQSTLPGNKYGAYNGTSMASPHVAGAAALILSKHPNWTNTQVRSSLENTTTKLGDSFYYGKGLINVQAAAQ
B2: Proteinase inhibitor, Q03026 (parent)
chain: MSASAKLSRMVCLLCGFFSTGISMASSLILLSASDLAGQWTLQQDEAPAICHLELRDSEVAEASGYDLGGDTACLTRWLPSEPRAWRPTPAGIALLERGGLTLMLLGRQGEGDYRVQKGDGGQLVLRRATP
B3: Ornithine carbamoyltransferase subunit I, P04391 (parent)
chain: MSGFYHKHFLKLLDFTPAELNSLLQLAAKLKADKKSGKEEAKLTGKNIALIFEKDSTRTRCSFEVAAYDQGARVTYLGPSGSQIGHKESIKDTARVLGRMYDGIQYRGYGQEIVETLAEYASVPVWNGLTNEFHPTQLLADLLTMQEHLPGKAFNEMTLVYAGDARNNMGNSMLEAAALTGLDLRLVAPQACWPEAALVTECRALAQQNGGNITLTEDVAKGVEGADFIYTDVWVSMGEAKEKWAERIALLREYQVNSKMMQLTGNPEVKFLHCLPAFHDDQTTLGKKMAEEFGLHGGMEVTDEVFESAASIVFDQAENRMHTIKAVMVATLSK
B4: Tetracycline repressor protein class D, P0ACT4 (parent)
chain: MARLNRESVIDAALELLNETGIDGLTTRKLAQKLGIEQPTLYWHVKNKRALLDALAVEILARHHDYSLPAAGESWQSFLRNNAMSFRRALLRYRDGAKVHLGTRPDEKQYDTVETQLRFMTENGFSLRDGLYAISAVSHFTLGAVLEQQEHTAALTDRPAAPDENLPPLLREALQIMDSDDGEQAFLHGLESLIRGFEVQLTALLQIVGGDKLIIPFC
B5: Azurin, P00282 (parent)
chain: MLRKLAAVSLLSLLSAPLLAAECSVDIQGNDQMQFNTNAITVDKSCKQFTVNLSHPGNLPKNVMGHNWVLSTAADMQGVVTDGMASGLDKDYLKPDDSRVIAHTKLIGSGEKDSVTFDVSKLKEGEQYMFFCTFPGHSALMKGTLTLK
B6: Cocaine esterase, Q9L9D7 (parent)
chain: MVDGNYSVASNVMVPMRDGVRLAVDLYRPDADGPVPVLLVRNPYDKFDVFAWSTQSTNWLEFVRDGYAVVIQDTRGLFASEGEFVPHVDDEADAEDTLSWILEQAWCDGNVGMFGVSYLGVTQWQAAVSGVGGLKAIAPSMASADLYRAPWYGPGGALSVEALLGWSALIGTGLITSRSDARPEDAADFVQLAAILNDVAGAASVTPLAEQPLLGRLIPWVIDQVVDHPDNDESWQSISLFERLGGLATPALITAGWYDGFVGESLRTFVAVKDNADARLVVGPWSHSNLTGRNADRKFGIAATYPIQEATTMHKAFFDRHLRGETDALAGVPKVRLFVMGIDEWRDETDWPLPDTAYTPFYLGGSGAANTSTGGGTLSTSISGTESADTYLYDPADPVPSLGGTLLFHNGDNGPADQRPIHDRDDVLCYSTEVLTDPVEVTGTVSARLFVSSSAVDTDFTAKLVDVFPDGRAIALCDGIVRMRYRETLVNPTLIEAGEIYEVAIDMLATSNVFLPGHRIMVQVSSSNFPKYDRNSNTGGVIAREQLEEMCTAVNRIHRGPEHPSHIVLPIIKR
B7: Penicillolysin, P47189 (parent)
chain: MRFTTLSTAFLALAQNVYAFPIESDLSALDVTLSQVSDTRIKAVVKNTGAENVTFVHLNFFRDSAPVKKVSVYRENNEVVFDGIKRRFQLQGLASESLTTLEAGEVLEDEFDIATTTDLSSGGAITLRSNGLVPVVKDGAVTGYLPYSSNDLKLNIDGAKASTVTKALKPLDRRTKETCSNASRKSALEKALSNTVKLANAAATAARSGSASKFSEYFKTTSSSTRSVVAARLEAVAKEAQSASSGSTTYYCSDTLGYCETNVLAYTLPARNIIANCDIYYSYLPALAGTCHQQDQATTTLHEFTHAPGVYSPGTDDLGYGYSAATSLSSSQAVLNADSYALYANAINLGC

Variants of: B1
Conditions: Bacillus amyloliquefaciens; pH 9.63; Thermal; DSC; glycine 50 mM; reversible: yes; structure 1SUP; whole UniProt chain shown

Variant | Tm [°C] | unfolding enthalpy (calorimetric) [kcal/mol] | unfolding enthalpy (van 't Hoff) [kcal/mol]
M157F Y324K N325S S328C | 63.5 | 140 | 140

Same assay, conditions: Bacillus amyloliquefaciens; pH 5; 20 °C; Thermal; DSC; Sodium acetate 100 mM; reversible: yes; structure 1SUP; whole UniProt chain shown

Variant | ddG of mutation (higher = less stable) [kcal/mol] | unfolding free energy [kcal/mol]
Q70L | 1.1 | 1

Same assay, conditions: Bacillus amyloliquefaciens; pH 8; Thermal; DSC; Tris-HCl 50 mM; KCl 50 mM; structure 1SUP; whole UniProt chain shown

Variant | Tm [°C] | change of melting temperature, mutant - wild type (higher = more stable) [°C]
T129C S194C | 62 | 3.1
S194C | 57.2 | -1.7

Same assay, conditions: Bacillus amyloliquefaciens; pH 8; Thermal; DSC; Tris-HCl 50 mM; CaCl2 10 mM; reversible: no; structure 1SUP; whole UniProt chain shown

Variant | Tm [°C] | change of melting temperature, mutant - wild type (higher = more stable) [°C]
N325S | 80.7 | 2.4

Variants of: B2
Conditions: Pseudomonas aeruginosa (strain ATCC 15692 / DSM 22644 / CIP 104116 / JCM 14847 / LMG 12228 / 1C / PRS 101 / PAO1); pH 7.1; 25 °C; GdnHCl; CD; Tris-HCl 50 mM; reversible: yes (75%); structure 2RN4; whole UniProt chain shown

Variant | ddG of mutation (higher = less stable) [kcal/mol] | unfolding free energy [kcal/mol]
D35A | -2.7 | 6.5
W40F | -1.1 | 4.9
A33P | -3.2 | 7

Same assay, conditions: Pseudomonas aeruginosa (strain ATCC 15692 / DSM 22644 / CIP 104116 / JCM 14847 / LMG 12228 / 1C / PRS 101 / PAO1); pH 7.1; Thermal; CD; sodium phosphate 20 mM; NaCl 0.1 M; reversible: yes (75%); structure 2RN4; whole UniProt chain shown

Variant | Tm [°C] | change of melting temperature, mutant - wild type (higher = more stable) [°C] | unfolding enthalpy (van 't Hoff) [kcal/mol]
D35A | 81.5 | 17.7 | 84.5

Variants of: B3
Conditions: Escherichia coli (strain K12); pH 8.3; Thermal; DSC; borate 40 mM; structure 1AKM; whole UniProt chain shown

Variant | Tm [°C] | unfolding enthalpy (calorimetric) [kcal/mol]
A326G | 63 | 660
R320A | 69.6 | 710
K87Q | 69.7 | 690

Variants of: B4
Conditions: Escherichia coli; pH 7.5; 22 °C; Urea; CD; Tris-HCl 50 mM; NaCl 150 mM; reversible: yes(92%); structure 2TRT; whole UniProt chain shown

Variant | denaturant midpoint (higher = more stable) [M]
R128E | 4.9

Variants of: B5
Conditions: Pseudomonas aeruginosa (strain ATCC 15692 / DSM 22644 / CIP 104116 / JCM 14847 / LMG 12228 / 1C / PRS 101 / PAO1); pH 7; 20 °C; GdnHCl; CD; phosphate 5 mM; reversible: yes; structure 5AZU; whole UniProt chain shown

Variant | denaturant m value [kcal/mol/M] | denaturant midpoint (higher = more stable) [M] | unfolding free energy [kcal/mol]
H66G | 3.94 | 1.1 | 4.35

Same assay, conditions: Pseudomonas aeruginosa (strain ATCC 15692 / DSM 22644 / CIP 104116 / JCM 14847 / LMG 12228 / 1C / PRS 101 / PAO1); pH 7.5; 40 °C; GdnHCl; Fluorescence; Tris Cl 2 mM; reversible: Yes; structure 5AZU; whole UniProt chain shown

Variant | ddG of mutation (higher = less stable) [kcal/mol] | unfolding free energy [kcal/mol]
I27S | 6.4 | 2.2
F130S | 6.4 | 2.2

Variants of: B6
Conditions: Rhodococcus sp. (strain MB1 Bresler); pH 8; Thermal; Fluorescence; Tris 50 mM; structure 1JU3; whole UniProt chain shown

Variant | Tm [°C] | change of melting temperature, mutant - wild type (higher = more stable) [°C]
G173Q | 37.7 | 2.97
L169K | 41.1 | 6.3
T172R G173Q | 41.2 | 6.41

Variants of: B7
Conditions: Penicillium citrinum; pH 5; Thermal; CD; sodium acetate 10 mM; reversible: no; whole UniProt chain shown

Variant | Tm [°C] | change of melting temperature, mutant - wild type (higher = more stable) [°C]
R207E E234R | 70 | 2
T255P | 71 | 3
A341E | 70 | 2
